Test results reported in the Human Domainome abundance scans (Beltran et al. 2025).

B1: Ventral anterior homeobox 1, residues 102 to 157; numbered along this chain, Q5SQQ9 (parent)
chain: RTRTSFTAEQLYRLEMEFQRCQYVVGRERTELARQLNLSETQVKVWFQNRRTKQKK

Variants of: B1
Assay: abundance fitness (aPCA) (normalised: wild type 0, dead -1); higher = more abundant; growth selection in yeast, the domain comes from the species named
Conditions: Homo sapiens

Abundance fitness of substitutions, site by site:
E31: W -0.721; R -0.657; G -0.454; N 0.028; I -0.399; D -0.234; Y -1.04; L -0.5; C -0.683; T -0.243; S -0.386; V -0.315; K -0.592; Q -0.347; P -0.662; F -0.795; H -0.468
A33: D -0.938; V -0.786; S -0.115; W -0.483; T -0.557; H -0.925; R -0.992; E -0.905; L -0.693; C -0.295; G -0.375; N -0.897; Q -0.989; Y -0.692; P -0.997
L36: N -0.935; P -0.711; D -0.643; S -0.687; C -0.165; Q -0.545; K -1.18; R -0.881; M -0.184; H -0.569; G -0.916; V -0.173; W -0.696; E -0.983; Y -0.858; F -0.741; A -0.601; T -0.264
Q42: G -0.603; L -0.137; I 0.007; P -0.824; M -0.252; T 0.163; D 0.028; Y 0.053; E 0.183; V -0.153; K -0.473; C -0.563; A 0.021; N -0.257; W -0.397; F -0.266; S -0.364; R -0.223
Q48: A -0.167
G26: T -0.453; S -0.151; L -0.297; M -0.351; E -0.249; N -0.318; Q -0.23; V -0.577; D -0.153; Y -0.342; P -0.208; F -0.278; K -0.15; I -0.63; W -0.892; H -0.413
F47: Y -0.376; K -0.885; D -0.674; W -0.651; H -0.754; A -1.02; C -0.743; R -0.873; I -0.663; S -0.762; E -1.04; T -0.792; P -0.836; M -0.228; V -0.787; G -0.976; Q -0.767
W46: R -0.844; T -0.922; S -0.627; G -0.778; I -0.807; L -0.717; Q -0.958; K -1.11; M -0.919; F -0.406; C -0.909; V -0.63
N37: C -0.037; K -0.092; F -0.183; L -0.307; T -0.254; V -0.464; M -0.536; Q 0.06; R -0.134; G -0.04; A -0.211; W -0.605; E -0.033; D -0.049; S -0.239
R34: V -0.074; A 0.179; E -0.235; Q -0.361; P -0.907; S -0.061; D -0.203; W -0.42; K -0.197; L -0.273; M -0.256; C -0.395; I -0.325; Y -0.655
Q35: W -0.304; G -0.182; I -0.236; K 0.093; F -0.292; E -0.032; T -0.205; S 0.037; C -0.08; M -0.087; Y -0.414; V -0.265; N -0.206; A 0.052; R -0.028; H -0.167; D -0.005; L -0.135
R27: N 0.156; H -0.245; V -0.01; A 0.07; G 0.003; T 0.013; P 0.008; C -0.026; Y -0.108; L -0.049; I 0.19; F -0.141; S 0.18; Q 0.009; K -0.045; E 0.167
S39: G -0.375; H -0.334; F -0.435; L -0.591; M -0.595; I -1.08; Q -0.313; Y -0.649; V -0.488; N 0.063; C -0.266; R -0.417; T -0.218; E -0.115; W -0.959; K -0.25; D 0.264; P 0.033
L32: K -0.641; W -1.04; A -0.791; Q -0.959; G -1.21; C -0.777; M -0.314; V -0.542; R -0.826
T30: E 0.018; Q -0.329; W -0.117; G -0.215; H -0.261; M -0.225; L -0.427; I -0.211; D -0.468; R -0.429; K -0.19; A -0.102; V -0.064; N -0.097; P -0.677
V45: G -0.159; M -0.148; W 0.015; D 0.185; S 0.158; P -0.545; Q -0.061; F -0.03; N -0.248; R -0.156; A 0.02; L 0.083; K -0.258; H -0.021; T 0.126; I -0.3; Y -0.046
L38: D -0.818; Q -0.91; K -0.773; V 0.027; P -1.02; W -0.861; M -0.112; H -0.854; A -0.253; F -0.72; S -0.321; I -0.307; G -0.822; C -0.186; R -0.576; T -0.411
T41: P -0.152; N -0.127; A 0.032; V -0.104; L 0.024; C 0.164; H -0.027; F -0.129; G 0.03; R -0.336; D 0.105; Q 0.227; E 0.106; W -0.12; Y -0.2; I -0.5; M 0.095; S 0.006; K -0.381
K44: R -0.22; A 0.038; H -0.26; W -0.167; V -0.032; Q -0.091; S 0.106; L -0.175; C -0.069; D 0.129; F -0.464; M -0.079; Y -0.271; N 0.002; P -0.94; G -0.049; E 0.048
V43: F -0.765; R -0.793; C -0.508; D -0.691; L -0.166; A -0.679; S -0.561; Q -0.817; W -0.871; P -0.723; M -0.838
E28: N -0.459; I -0.657; C -0.412; P -0.171; G -0.39; S -0.338; R -0.596; Y -0.661; M -0.446; H -0.318; V -0.419; Q -0.394; W -0.483; K -0.78; L -0.369; F -0.513; T -0.247; A -0.318; D -0.077
E40: D -0.128; M -0.852; A -0.215; C -0.226; G -0.413; I -0.557; H -1.01; P -0.318; Q -0.507; S -0.283; K -0.676; L -0.711; Y -0.712; V -0.315; R -0.57; W -0.736
